Data published in patent US20200071406A1 (AGENCY FOR SCIENCE TECHNOLOGY AND RESEARCH, published 2020).

Biological target: T1, soluble peptide MHC complex of p53125-134 and soluble HLA*A2402 (human)
T1 construct: Soluble complex used for phage selection, ELISA and SPR; also called p53-A24; p53-A24 monomers
Assay: surface plasmon resonance

Kd: 364 nM
B1: P1C1_gl (antibody, V domains shown)
VH: QVQLQESGPGLVKPSQTLSLTCTVSGGSISSGGYYWSWIRQHPGKGLEWIGYIYYSGSTYYNPSLKSRVTISVDTSKNQFSLKLSSVTAADTAVYYCARENFGAFDHWGQGTLVTVSS
VL: QSVLTQPPSVSGAPGQRVTISCTGSSSNIGADYETHWYQQLPGTAPKLLIYGNTNRPSGVPDRFSGSKSGTSASLAITGLQAEDEADYYCQSYDSNLSAWVFGGGTKLTILS
notes: it induces ADCC, so it has an Fc; also called germline version of P1C1; original germline clone
